Experimental data from publication PMC2442654 (PLoS ONE, 2008).

Target: the molecule itself
Assay: thioflavin T fluorescence + AFM (de novo amyloid fibril formation)

B1: recombinant mouse full-length prion protein, MoPrP (23-231), unexposed (natural protein)
chain: not shown
binding result: binds
